In publication PMC5750235:

What was measured:
[1] = biological target: IgE on the surface of patients' basophils (human (endogenous in patients' blood)); assay: flow cytometry on cells; EDTA blood of allergic donors preincubated with 026 sdab (0 to 45 µmol/l) for up to 60 min in IL-3-containing stimulation buffer; remaining surface IgE on basophils stained with anti-IgE-FITC
IgE Fc Cε2–4 (human) = assay: SPR; Biacore T200; IgE Fc immobilized (110 RU) on CM5 by NHS/EDC; 026 sdab injected 0.003-50 µg/ml, 25 µl/min; 25 °C; 10 mM monosodium phosphate, 40 mM disodium phosphate, 100 mM NaCl, pH 7.4, 0.01% Tween-20; 1:1 binding model

Chain of IgE on the surface of patients' basophils (human (endogenous in patients' blood)) (P01854 whole entry): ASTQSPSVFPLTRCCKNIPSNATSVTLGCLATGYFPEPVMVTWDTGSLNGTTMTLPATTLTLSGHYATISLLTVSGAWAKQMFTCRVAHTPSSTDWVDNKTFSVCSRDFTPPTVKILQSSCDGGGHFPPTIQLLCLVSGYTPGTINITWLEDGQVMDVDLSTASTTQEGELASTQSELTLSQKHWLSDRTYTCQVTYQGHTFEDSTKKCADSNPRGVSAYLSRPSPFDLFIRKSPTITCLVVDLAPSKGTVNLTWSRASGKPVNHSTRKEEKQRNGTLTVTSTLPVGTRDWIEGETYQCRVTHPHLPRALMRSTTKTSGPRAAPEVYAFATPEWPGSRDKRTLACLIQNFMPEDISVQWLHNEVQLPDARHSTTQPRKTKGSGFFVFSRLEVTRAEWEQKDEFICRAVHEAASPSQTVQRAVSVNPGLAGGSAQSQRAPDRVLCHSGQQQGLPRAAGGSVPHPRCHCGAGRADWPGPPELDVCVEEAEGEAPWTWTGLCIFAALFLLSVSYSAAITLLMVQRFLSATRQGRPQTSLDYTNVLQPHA

- surface IgE left on basophils after 15 min with 026 sdab [1]: 30%
- surface IgE left on basophils after prolonged incubation with 026 sdab [1]: 20%
- Kd (IgE Fc Cε2–4 (human)): 1.4 nM
B1: 026 sdab (VHH)
VHH: EVQLLESGGGLVQPGGSLRLSCAASGFTFGNYDMAWVRQAPGKRPEWVSSIDTGGDITHYADSVKGRFTISRDNAKNTLYLQMNSLRPEDTAVYWCATDEEYALGPNEFDYYGQGTLVTVSS
